Experimental data reported in PMC12397275 (Nature Communications, 2025).

Target: T1, 670-689 VP3 peptide (rhesus rotavirus RRV strain)
T1 construct: source: synthetic peptide (Gencript)
Assay: BLI
Conditions: both partners purified

B1: PFDN3 protein (His tag removed) (natural protein)
chain: MAAVKDSCGKGEMATGNGRRLHLGIPEAVFVEDVDSFMKQPGNETADTVLKKLDEQYQKYKFMELNLAQKKRRLKGQIPEIKQTLEILKYMQKKKESTNSMETRFLLADNLYCKASVPPTDKVCLWLGANVMLEYDIDEAQALLEKNLSTATKNLDSLEEDLDFLRDQFTTTEVNMARVYNWDVKRRNKDDSTKNKA
notes: also called non-Tagged PFDN3; human PFDN3; source: bought: Abcam (ab139201), His tag cleaved with thrombin
binding result: binds
